Molecular target: recombinant full length Tenascin-C, large isoform (TNC-L) (human, UniProt P24821 23-2201)
Experiment: ELISA

recombinant full length Tenascin-C, large isoform (TNC-L), sequence (P24821 23-2201): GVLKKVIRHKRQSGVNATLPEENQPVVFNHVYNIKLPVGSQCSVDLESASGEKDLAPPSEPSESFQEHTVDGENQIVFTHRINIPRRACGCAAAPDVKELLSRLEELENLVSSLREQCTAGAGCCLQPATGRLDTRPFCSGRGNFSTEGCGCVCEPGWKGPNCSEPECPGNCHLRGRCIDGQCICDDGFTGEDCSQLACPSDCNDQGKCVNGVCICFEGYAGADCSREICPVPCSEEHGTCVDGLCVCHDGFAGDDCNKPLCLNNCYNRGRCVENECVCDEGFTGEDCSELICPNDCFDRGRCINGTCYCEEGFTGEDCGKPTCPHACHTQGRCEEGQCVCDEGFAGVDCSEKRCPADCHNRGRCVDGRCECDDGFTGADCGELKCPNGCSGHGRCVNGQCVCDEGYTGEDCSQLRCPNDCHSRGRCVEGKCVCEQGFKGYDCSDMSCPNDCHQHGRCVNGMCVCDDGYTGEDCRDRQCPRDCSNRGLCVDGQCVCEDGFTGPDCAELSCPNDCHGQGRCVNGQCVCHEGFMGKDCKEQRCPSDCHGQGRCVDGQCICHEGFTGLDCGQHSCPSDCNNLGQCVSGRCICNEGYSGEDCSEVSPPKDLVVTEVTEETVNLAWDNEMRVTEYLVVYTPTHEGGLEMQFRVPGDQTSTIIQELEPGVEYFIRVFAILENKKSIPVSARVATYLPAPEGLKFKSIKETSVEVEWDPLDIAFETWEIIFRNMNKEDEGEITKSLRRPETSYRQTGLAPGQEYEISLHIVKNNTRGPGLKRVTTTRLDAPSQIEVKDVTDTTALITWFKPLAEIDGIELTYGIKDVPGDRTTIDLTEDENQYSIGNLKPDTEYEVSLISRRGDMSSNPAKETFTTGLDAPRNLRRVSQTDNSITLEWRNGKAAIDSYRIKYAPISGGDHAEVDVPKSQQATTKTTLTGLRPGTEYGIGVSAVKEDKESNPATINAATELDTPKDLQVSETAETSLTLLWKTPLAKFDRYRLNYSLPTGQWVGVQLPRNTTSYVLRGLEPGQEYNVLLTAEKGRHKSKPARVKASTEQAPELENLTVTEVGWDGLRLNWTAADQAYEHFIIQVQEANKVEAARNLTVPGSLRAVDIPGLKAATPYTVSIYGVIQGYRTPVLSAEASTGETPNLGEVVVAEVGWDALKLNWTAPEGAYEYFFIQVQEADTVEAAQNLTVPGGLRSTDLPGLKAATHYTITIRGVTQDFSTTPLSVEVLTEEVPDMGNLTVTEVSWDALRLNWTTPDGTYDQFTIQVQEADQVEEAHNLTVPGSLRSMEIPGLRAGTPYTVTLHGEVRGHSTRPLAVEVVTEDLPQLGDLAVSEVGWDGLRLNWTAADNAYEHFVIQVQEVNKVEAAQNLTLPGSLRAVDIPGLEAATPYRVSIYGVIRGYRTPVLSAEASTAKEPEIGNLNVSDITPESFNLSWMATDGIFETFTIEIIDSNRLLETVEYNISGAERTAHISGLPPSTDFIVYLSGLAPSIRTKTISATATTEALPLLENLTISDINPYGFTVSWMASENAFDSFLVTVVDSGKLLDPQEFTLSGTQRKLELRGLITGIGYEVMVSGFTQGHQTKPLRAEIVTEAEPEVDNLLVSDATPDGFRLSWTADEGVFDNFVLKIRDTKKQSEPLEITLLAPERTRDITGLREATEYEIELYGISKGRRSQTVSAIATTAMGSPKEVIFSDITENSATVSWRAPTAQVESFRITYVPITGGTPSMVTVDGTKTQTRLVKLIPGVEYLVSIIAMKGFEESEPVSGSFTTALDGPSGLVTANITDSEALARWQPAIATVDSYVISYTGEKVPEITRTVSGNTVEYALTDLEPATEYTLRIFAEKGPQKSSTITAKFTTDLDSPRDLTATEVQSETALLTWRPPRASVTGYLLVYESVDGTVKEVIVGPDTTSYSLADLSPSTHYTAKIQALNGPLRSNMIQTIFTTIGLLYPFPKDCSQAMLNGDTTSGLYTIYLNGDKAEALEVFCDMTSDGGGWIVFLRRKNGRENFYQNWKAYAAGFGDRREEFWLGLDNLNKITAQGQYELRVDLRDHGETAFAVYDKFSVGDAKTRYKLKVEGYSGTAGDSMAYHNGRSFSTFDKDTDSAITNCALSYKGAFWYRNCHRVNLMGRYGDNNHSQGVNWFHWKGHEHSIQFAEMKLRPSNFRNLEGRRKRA

Row | Binder | binding result
1 | TRPNYNKRKRIHIGPGRAFYTTKNIIGTIRQAH [MN V3 complete V3 loop peptide (33 amino acid linear peptide, wild type)] | binds
2 | TRPNYNKRKRIHIGPGRAFYTTAAIIGTIRQAH [MNV3 321/322 Mutant peptide (K321A/N322A)] | binds
3 | TRPNYNKRKRIHIGPGRAFYTTKNIIGAARQAH [MNV3 326/327 Mutant peptide (T326A/I327A)] | binds
4 | TRPNYNKRKRIHIGPGRAFYTTAAIIGAARQAH [MNV3 Quad Mutant peptide (K321A/N322A/T326A/I327A)] | binds
